By IC50 is commonly meant the concentration needed to halve the response being measured.

Data on 4 molecules can be found in publication PMC6245143, “Small-animal SPECT/CT imaging of cancer xenografts and pulmonary fibrosis using a ^99mTc-labeled integrin αvβ6-targeting cyclic peptide with improved in vivo stability” (Biophysics Reports, 2018).

For data set [1] the following is noted: mouse; cited from earlier work. The text has this: Due to the critical role of integrin αvβ6 in tumorigenesis and fibrogenesis, it has emerged as an appealing target for diagnostic imaging, prognosis evaluation, and therapeutic responses monitoring (Agarwal [2014]; Cantor et al. [2015]; Saini et al. [2015]; Yang et al. [2015]). Therefore, noninvasive and quantitative imaging of integrin αvβ6 expression by molecular imaging techniques would be of great potential for better management of these diseases. Previous studies have focused on the development of positron emission tomography (PET) and single-photon emission computed tomography (SPECT) ra ...

A short description of data set [2]: Biodistribution in BxPC-3 tumor-bearing nude mice. The conditions noted are these: female, BALB/c nude, in vivo, iv, total radioactivity; for tissue uptake at 1 h: 1 h after injection. As to the method:
(§1) All animal experiments were performed in accordance with the guidelines of Peking University Animal Care and Use Committee. To establish the BxPC-3 subcutaneous tumor model, BxPC-3 cells (1 × 10^7 in 100 μl of PBS) were inoculated subcutaneously into the right front flanks of female BALB/c nude mice. The animals were used for in vivo studies when the tumor size reached 200–300 mm^3 (3–4 weeks after inoculation). For the pulmonary fibrosis mouse model, BLM (1.5 units/kg, 50 μl in PBS) or PBS (50 μl; as a vehicle control) was administered once into the C57/BL6 mice by intratracheal injection. On day 21 (based on pilot studies), the mice with well-established pulmonary fibrosis were used for SPECT/CT imaging.
Biodistribution studies were performed using female BALB/c nude mice bearing BxPC-3 xenografts. Mice received an injection via the tail vein of 370 kBq (10 μCi) of ^99mTc–HYNIC–cHK to evaluate the distribution of the radiotracer. The blocking experiments were also performed by coinjection of ^99mTc–HYNIC–cHK with a saturating dose of the HK peptide (500 μg per mouse). At 0.5, 1, and 2 h after injection, the animals were sacrificed, and the tumors and the organs/tissues of interest were dissected and wet-weighed, and the radioactivity in the tissue was measured using a γ-counter. The results are presented as percentages of injected dose per gram of tissue (%ID/g). Values are expressed as mean ± SD (n = 4 per group).

For data set [3] the following is noted: 37 °C, 0, 0.5, 1, 2 and 4 h, radio-HPLC. The procedure:
The in vitro solution stability of ^99mTc–HYNIC–cHK in fetal bovine serum (FBS) or L-cysteine was monitored by radio-HPLC.
^99mTc–HYNIC–cHK was incubated in FBS or L-cysteine (1.0 mg/mL) for 0, 0.5, 1, 2, and 4 h at 37 °C to test the in vitro solution stability. After passing through a 0.22-μm Millipore filter, the samples were analyzed by radio-HPLC.

In data set [4] the test system is bleomycin-induced fibrotic lungs. The experiment in a line: SPECT/CT imaging of bleomycin-induced pulmonary fibrosis. The data set is classed as in vivo. The conditions noted are these: C57/BL6 mice, 0.5 h after injection. As to the method: as §1
(§2) Small-animal SPECT/CT scans of subcutaneous BxPC-3 tumor and pulmonary fibrosis mouse models were performed using a SPECT/CT system (NanoScan; Mediso, Budapest, Hungary). Each BxPC-3-bearing mouse was injected via tail vein with 37 MBq (1 mCi) of ^99mTc–HYNIC–cHK. At 0.5 h and 1 h after injection, the mice were anesthetized by inhalation of 2% isoflurane and imaged using the Nano-SPECT/CT camera, The SPECT and CT fusion images were obtained using the automatic fusion software (InterView Fusion; Mediso Medical Imaging Systems, Budapest, Hungary).
Each BLM- or PBS-treated mouse was administered with 37 MBq of ^99mTc–HYNIC–cHK via tail vein. […]

Data set [5] relates to BxPC-3 tumors. Put plainly: Small-animal SPECT/CT imaging of BxPC-3 cancer xenografts. Type of data set: in vivo, BALB/c nude mice. Particulars: BxPC-3 tumor-bearing mice, 37 MBq i.v., blocking dose of cold HK peptide, P < 0.001. As to the method: as §1, §2
The target in data set [6] is T1, integrin αvβ6-positive BxPC-3 cells (Homo sapiens, UniProt P06756+P18564).
T1 construct: host or cells: BxPC-3 human pancreatic cancer cells
The experiment in a line: Binding of ^99mTc–HYNIC–cHK to BxPC-3 cells, without or with cold peptide blocking. Type of data set: cell-based. The conditions noted are these: 4 °C, 4 h. The procedure:
The binding specificity of ^99mTc–HYNIC–cHK to integrin αvβ6 was evaluated in integrin αvβ6-positive BxPC-3 cells.
In vitro integrin αvβ6 binding specificity of ^99mTc–HYNIC–cHK was tested using the integrin αvβ6-positive BxPC-3 cells. Briefly, cells were seeded into 12-well plates and incubated overnight at 37 °C to allow adherence. After brief washing with PBS, tumor cells were incubated with 3.7 kBq ^99mTc–HYNIC–cHK with or without an excess dose of cold cHK or HK peptide at 4 °C for 4 h. Tumor cells were then washed with chilled PBS and harvested by trypsinization with 0.05% trypsin. The cell suspensions were collected and measured in a γ-counter (Wallac 1470-002, Perkin-Elmer, Finland). The cell uptake was expressed as the percent added dose (%AD). Experiments were performed twice with triplicate samples.

For data set [7] the following is noted: for degree of metabolism in blood: mouse blood, 1 mCi i.v. The procedure:
We performed the metabolism studies of ^99mTc–HYNIC–cHK using normal BALB/c mice. We analyzed the samples from both blood and urine to determine whether the radiotracer retains its chemical integrity at 0.5 h and 1 h postinjection.
The metabolic stability of ^99mTc–HYNIC–cHK was evaluated in female BALB/c normal mice. Each mouse was administered with the radiotracer at a dose of 1 mCi in 100 μl saline via intravenous injection. At 0.5 h and 1 h postinjection, the blood and urine samples were collected. The samples were centrifuged at 8000 r/min for 15 min. The supernatant was collected, filtered through a 0.22-μm Millipore filter, and then analyzed by radio-HPLC.

In data set [8] the target is T2, integrin αvβ6 on BxPC-3 cells (Homo sapiens, UniProt P06756+P18564).
T2 construct: Experiments were performed on high integrin αvβ6-expressing BxPC-3 cells; host or cells: BxPC-3 human pancreatic cancer cells
The experiment in a line: Displacement cell-binding assay with ^125I–HYK as radioligand. The procedure: In vitro integrin αvβ6 binding affinities of cHK and HK were compared via displacement cell-binding assays (Dong et al. [2015]) using ^125I–HYK as the radioligand. ^125I–HYK was prepared by labeling HYK with Na^125I using the Iodogen method as previously reported (Liu et al. [2010]). Experiments were performed on high integrin αvβ6-expressing BxPC-3 cells. The best-fit 50% inhibitory concentration (IC50) values were calculated by fitting the data with nonlinear regression using Graph-Pad Prism (GraphPad Software, Inc.).

Like-named read-outs stand apart in the source and are kept apart here. Where a SMILES comes first, the peptide text is derived from it. Bridges are numbered along the chain shown (N, C = ends). Where no end group is shown, it is not given here. The star is where a group is joined. HYNIC = NNc1ccc(C(=O)*)cn1

T1 sequence (P06756 31-889 limits assumed): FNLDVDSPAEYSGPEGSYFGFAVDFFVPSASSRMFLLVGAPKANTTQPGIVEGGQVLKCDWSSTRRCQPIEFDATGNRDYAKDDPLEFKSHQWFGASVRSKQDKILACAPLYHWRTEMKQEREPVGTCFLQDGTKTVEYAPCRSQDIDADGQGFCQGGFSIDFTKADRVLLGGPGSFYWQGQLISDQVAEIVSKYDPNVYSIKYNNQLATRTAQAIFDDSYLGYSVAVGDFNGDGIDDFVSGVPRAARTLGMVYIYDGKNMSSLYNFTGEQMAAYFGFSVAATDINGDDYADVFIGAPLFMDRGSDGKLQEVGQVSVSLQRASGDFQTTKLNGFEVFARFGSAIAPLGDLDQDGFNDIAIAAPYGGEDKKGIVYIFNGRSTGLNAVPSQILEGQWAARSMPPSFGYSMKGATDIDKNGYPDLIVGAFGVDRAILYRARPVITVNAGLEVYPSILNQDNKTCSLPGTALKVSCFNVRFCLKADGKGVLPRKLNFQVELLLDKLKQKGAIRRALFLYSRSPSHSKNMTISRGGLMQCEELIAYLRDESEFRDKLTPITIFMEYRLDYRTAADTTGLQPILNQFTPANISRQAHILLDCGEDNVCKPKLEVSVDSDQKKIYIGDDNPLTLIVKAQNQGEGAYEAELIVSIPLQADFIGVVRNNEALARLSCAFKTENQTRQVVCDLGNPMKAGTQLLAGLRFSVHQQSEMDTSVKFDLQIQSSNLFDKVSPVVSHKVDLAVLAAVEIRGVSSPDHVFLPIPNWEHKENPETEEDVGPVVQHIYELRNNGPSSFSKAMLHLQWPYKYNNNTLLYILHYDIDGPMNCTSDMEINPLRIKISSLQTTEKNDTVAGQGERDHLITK
T1 sequence (P06756 891-1048 partner limits assumed): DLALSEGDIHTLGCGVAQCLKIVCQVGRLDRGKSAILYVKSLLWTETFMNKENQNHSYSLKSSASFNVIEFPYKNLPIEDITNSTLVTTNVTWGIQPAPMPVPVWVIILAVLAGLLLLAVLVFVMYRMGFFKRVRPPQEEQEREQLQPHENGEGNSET
T1 sequence (P18564 22-788): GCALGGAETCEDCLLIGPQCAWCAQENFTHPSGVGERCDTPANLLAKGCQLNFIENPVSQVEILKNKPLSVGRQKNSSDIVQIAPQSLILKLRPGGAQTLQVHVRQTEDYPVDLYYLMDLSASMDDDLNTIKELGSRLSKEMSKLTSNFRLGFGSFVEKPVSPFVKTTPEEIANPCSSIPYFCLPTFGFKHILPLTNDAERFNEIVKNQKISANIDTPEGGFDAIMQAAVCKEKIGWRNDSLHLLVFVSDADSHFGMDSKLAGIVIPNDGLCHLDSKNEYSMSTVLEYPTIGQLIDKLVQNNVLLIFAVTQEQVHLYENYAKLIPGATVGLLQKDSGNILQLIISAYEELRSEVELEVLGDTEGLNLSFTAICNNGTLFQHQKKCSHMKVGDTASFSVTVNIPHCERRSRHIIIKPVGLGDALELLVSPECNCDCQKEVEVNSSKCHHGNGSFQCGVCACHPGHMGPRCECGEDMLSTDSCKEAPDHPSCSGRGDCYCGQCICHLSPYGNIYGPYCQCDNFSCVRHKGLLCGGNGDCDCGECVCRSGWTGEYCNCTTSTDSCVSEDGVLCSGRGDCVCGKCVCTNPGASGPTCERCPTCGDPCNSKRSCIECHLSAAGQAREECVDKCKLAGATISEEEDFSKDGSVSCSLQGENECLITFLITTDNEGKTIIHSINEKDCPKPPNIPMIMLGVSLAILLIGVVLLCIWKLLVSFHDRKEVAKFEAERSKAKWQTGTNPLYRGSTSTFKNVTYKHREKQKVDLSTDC
T2 sequence (P06756 31-889 limits assumed): as the sequence (P06756 31-889 limits assumed) above
T2 sequence (P06756 891-1048 partner limits assumed): as the sequence (P06756 891-1048 partner limits assumed) above
T2 sequence (P18564 22-788): as the sequence (P18564 22-788) above

For `CC(C)C[C@H](NC(=O)[C@H](CC(=O)O)NC(=O)CNC(=O)[C@@H](N)CCCNC(=N)N)C(=O)N[C@@H](C)C(=O)N[C@H](C(=O)N[C@@H](CC(C)C)C(=O)N[C@@H](CCCNC(=N)N)C(=O)N[C@@H](CCC(N)=O)C(=O)N[C@@H](CC(C)C)C(=O)N[C@@H](C)C(=O)N[C@@H](CCC(N)=O)C(=O)N[C@@H](CCC(=O)O)C(=O)N[C@@H](CC(=O)O)C(=O)NCC(=O)N[C@H](C(=O)N[C@H](C(=O)NCC(=O)N[C@H](C(=O)N[C@@H](CCCNC(=N)N)C(=O)N[C@@H](CCCCNC(=O)c1ccc(NN)nc1)C(=O)O)C(C)C)C(C)C)C(C)C)[C@@H](C)O` [^99mTc–HYNIC–HK, metal not drawn, reference compound] (H-RGDLATLRQLAQEDGVVGVRK(HYNIC)-OH; N-terminus and C-terminus assumed), the “time to complete degradation in vivo after injection” value in data set [1] is recorded as no more than 30 min. Moreover, in data set [2] (mouse, 370 kBq), the tissue to tissue ratio at 0.5 h was 1.82 ± 0.27 and the tissue uptake at 0.5 h is 0.58 ± 0.09 %ID/g.
Turning to `CC(C)C[C@@H]1NC(=O)[C@H](CC(=O)O)NC(=O)CNC(=O)[C@H](CCCNC(=N)N)NC(=O)[C@@H](N)CSSC[C@@H](C(=O)O)NC(=O)[C@H](CCCCNC(=O)c2ccc(NN)nc2)NC(=O)[C@H](CC(C)C)NC(=O)[C@H]([C@@H](C)O)NC(=O)[C@H](C)NC1=O` [^99mTc–HYNIC–cHK, metal not drawn] (H-CRGDLATLK(HYNIC)C-OH; disulfide 1-10), in data set [3] (L-cysteine 1.0 mg/mL), the “time remaining stable in the presence of L-cysteine” value is listed as “more than 4 h”. In data set [3] (fetal bovine serum), the “time remaining stable in FBS” value is given as “more than 4 h”. For the same molecule, the tissue uptake at 1 h in data set [2] (BxPC-3 tumors, blocking with HK peptide 500 μg per mouse, n = 4, read-out: tumor uptake with coinjection of cold HK peptide) was determined as 0.24 ± 0.04 %ID/g; in data set [2] (mouse, 370 kBq, BxPC-3 tumors, mean ± SD, n = 4, read-out: tumor uptake), 0.43 ± 0.09 %ID/g. The tissue to tissue ratio at 0.5 h in data set [2] (mouse, 370 kBq, BxPC-3 tumor-bearing nude mice, 0.5 h after injection, n = 4, read-out: tumor-to-muscle (T/M) ratio) was determined as 2.99 ± 0.87. Besides, in data set [2] (mouse, 370 kBq, BxPC-3 tumors, 2 h after injection, mean ± SD, n = 4), the tissue uptake at 2 h was determined as 0.33 ± 0.16 %ID/g. Besides, in data set [2] (mouse, BxPC-3 tumors, 0.5 h after injection, 370 kBq i.v., mean ± SD, n = 4, read-out: tumor uptake), the tissue uptake at 0.5 h turned out to be 0.63 ± 0.18 %ID/g. Moreover, the “lung uptake in PBS-treated mice (SPECT/CT)” value in data set [4] (PBS control, 37 MBq i.v.) is “no significant uptake”. In data set [4] (bleomycin 1.5 units/kg intratracheal, day 21, 37 MBq i.v.), the “lung uptake in BLM-treated mice (SPECT/CT)” value is reported as “evident accumulation”. Further, the “tumor uptake in the HK blocking group (SPECT)” value in data set [5] is listed as “almost completely inhibited”. Further, the “binding of ^99mTc–HYNIC–cHK to BxPC-3 cells (cell uptake)” value in data set [6] (with excess cold HK peptide (300 μg) blocking) is 0.06 ± 0.007 %AD; in data set [6] (with excess cold cHK peptide (300 μg) blocking), 0.03 ± 0.005 %AD; in data set [6] (without blocking, 3.7 kBq tracer, γ-counter, twice with triplicate samples), 0.79 ± 0.01 %AD. The “in vivo stability compared to ^99mTc–HYNIC–HK” value in data set [7] (comparison with linear peptide-based radiotracer (Liu et al. [2014b])) is recorded as “much more stable in vivo”. Besides, the “degree of metabolism in blood” value in data set [7] (0.5 h postinjection, radio-HPLC) was 9.94%; in data set [7] (1 h postinjection, radio-HPLC) it was 30.09%. Further, the “chemical integrity in urine” value in data set [7] (mouse urine, 0.5 h and 1 h postinjection, radio-HPLC) is recorded as “retained its integrity”.
`CC(C)C[C@@H]1NC(=O)[C@H](CC(=O)O)NC(=O)CNC(=O)[C@H](CCCNC(=N)N)NC(=O)[C@@H](N)CSSC[C@@H](C(=O)O)NC(=O)[C@H](CCCCN)NC(=O)[C@H](CC(C)C)NC(=O)[C@H]([C@@H](C)O)NC(=O)[C@H](C)NC1=O` [cHK] (H-CRGDLATLKC-OH; disulfide 1-10) displayed a half-maximal inhibitory concentration (IC50) in data set [8] of 0.0203 ± 0.00117 µM.
Regarding “RGDLATLRQLAQEDGVVGVRK [HK, reference compound]”, the IC50 in data set [8] (displacement cell-binding assay, BxPC-3 cells, nonlinear regression fit, read-out: IC50, inhibition of ^125I–HYK binding to integrin αvβ6 on BxPC-3 cells) was found to be 0.00355 ± 9e-05 µM.
